We go through three substances from publication PMC5253704.

Holding throughout (experiment): ELISA; one protein (25 nM) or two proteins together (12.5 nM each) coated on wells 16 h at 4 °C in buffer A (20 mM Tris-HCl, 150 mM NaCl, 1 mM ZnCl2, 1 mM CaCl2, 1 mM MgCl2, pH 7.4); soluble protein at 50 to 0.78 nM; detected with antibody and HRP secondary; calculated KD
Experiment [1] addresses recombinant FGF2 (UniProt P09038).
Experiment [2] has as its target recombinant glypican-1 (R&D Systems) (UniProt P35052).
Experiment [3] concerns the target GPC1+FGF2 combined (co-adsorbed on the well) (UniProt P35052).
The target in experiment [4] is recombinant murine α3(V)-NTD (N-terminal non-triple helical domain of the α3(V) collagen chain) (murine).

As usually defined, the Kd is the constant that tells how readily two partners part at equilibrium. As for “recombinant murine α3(V)-NTD (N-terminal non-triple helical domain of the α3(V) collagen chain) (domain or fragment)”, the dissociation constant (Kd) was 35 nM in experiment [1], 33 nM in experiment [2] and 16 nM in experiment [3].

Turning to “recombinant glypican-1 (R&D Systems) (from UniProt P35052 24-530) (natural protein)”, the Kd in experiment [4] was 34 nM.

On to “recombinant FGF2 (from UniProt P09038 143-288) (ligand)”, for which, in experiment [4], the Kd is 36 nM.
